# In the supplement of paper PMC9112550, “Optimization of the antimicrobial peptide Bac7 by deep mutational scanning” (BMC Biology, 2022):
# Tested on: Escherichia coli TOP10
# Assay: shrunken log2 fold change of peptide-encoding DNA abundance (4.5 h post-induction vs induction); higher = less antimicrobial activity (less host growth inhibition)
# Details: time post-induction: 4.5 h; library: site-saturation at positions 5, 18, 19, 20
# 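Further: peptides expressed intracellularly from a pBAD plasmid library in pooled LB shake-flask culture, induced with 0.3% L-arabinose, DNA abundance read by NGS, three biological replicates, DESeq2 with apeglm shrinkage.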
row,Sequence,shrunken log2 fold change
1,RRIRVRPPRLPRPRPRPCNCPRP,-0.0105
2,RRIRQRPPRLPRPRPRPVADPRP,0.0976
3,RRIRFRPPRLPRPRPRPAISPRP,-0.193
4,RRIRTRPPRLPRPRPRPRRWPRP,-0.0464
5,RRIRTRPPRLPRPRPRPRYTPRP,0.0216
6,RRIRNRPPRLPRPRPRPQIVPRP,-0.0891
7,RRIRARPPRLPRPRPRPPLHPRP,0.467
8,RRIRWRPPRLPRPRPRPMHYPRP,-0.107
9,RRIRRRPPRLPRPRPRPKCIPRP,-0.019
10,RRIRQRPPRLPRPRPRPVKMPRP,-0.211
11,RRIRGRPPRLPRPRPRPMSIPRP,0.0628
12,RRIRIRPPRLPRPRPRPFIVPRP,-0.105
13,RRIRQRPPRLPRPRPRPQGTPRP,0.193
14,RRIRSRPPRLPRPRPRPMCCPRP,0.109
15,RRIRIRPPRLPRPRPRPIRKPRP,-0.0303
16,RRIRTRPPRLPRPRPRPCDQPRP,-0.252
17,RRIRWRPPRLPRPRPRPNDLPRP,0.0302
18,RRIRVRPPRLPRPRPRPQFHPRP,-0.186
19,RRIRTRPPRLPRPRPRPTYMPRP,-0.32
20,RRIRLRPPRLPRPRPRPLTQPRP,0.343
21,RRIRPRPPRLPRPRPRPGEWPRP,0.214
22,RRIRLRPPRLPRPRPRPVNQPRP,-0.138
23,RRIRHRPPRLPRPRPRPLRPPRP,0.639
24,RRIRFRPPRLPRPRPRPCWSPRP,-0.443
25,RRIRCRPPRLPRPRPRPMNYPRP,-0.226

row,Sequence,shrunken log2 fold change
1,RRIRLRPPRLPRPRPRPSASPRP,0.0218
2,RRIRYRPPRLPRPRPRPNAAPRP,0.216
3,RRIRLRPPRLPRPRPRPHYWPRP,-0.356
4,RRIRCRPPRLPRPRPRPAFPPRP,0.16
5,RRIRIRPPRLPRPRPRPYDKPRP,-0.224
6,RRIRLRPPRLPRPRPRPPQQPRP,0.313
7,RRIRSRPPRLPRPRPRPTWMPRP,0.0331
8,RRIRNRPPRLPRPRPRPFDSPRP,-0.303
9,RRIRIRPPRLPRPRPRPLMNPRP,-0.94
10,RRIRYRPPRLPRPRPRPYTYPRP,-0.438
11,RRIRERPPRLPRPRPRPQFWPRP,0.172
12,RRIRWRPPRLPRPRPRPWKIPRP,-0.0733
13,RRIRPRPPRLPRPRPRPGLWPRP,0.341
14,RRIRIRPPRLPRPRPRPGLCPRP,0.108
15,RRIRDRPPRLPRPRPRPVMYPRP,-0.166
16,RRIRNRPPRLPRPRPRPGCRPRP,0.123
17,RRIRCRPPRLPRPRPRPMQIPRP,0.0467
18,RRIRKRPPRLPRPRPRPCSIPRP,0.11
19,RRIRHRPPRLPRPRPRPKMNPRP,-0.487
20,RRIRYRPPRLPRPRPRPGWTPRP,-0.103
21,RRIRNRPPRLPRPRPRPLQVPRP,-0.136
22,RRIRQRPPRLPRPRPRPDHNPRP,-0.328
23,RRIRCRPPRLPRPRPRPIWQPRP,0.102
24,RRIRYRPPRLPRPRPRPQWPPRP,-0.533
25,RRIRTRPPRLPRPRPRPLISPRP,-0.145

row,Sequence,shrunken log2 fold change
1,RRIRWRPPRLPRPRPRPDKDPRP,-0.365
2,RRIRGRPPRLPRPRPRPHCSPRP,0.144
3,RRIRKRPPRLPRPRPRPYMIPRP,-0.415
4,RRIRGRPPRLPRPRPRPWFIPRP,-0.361
5,RRIRLRPPRLPRPRPRPTIMPRP,-0.334
6,RRIRCRPPRLPRPRPRPEEPPRP,0.847
7,RRIRGRPPRLPRPRPRPIRIPRP,0.217
8,RRIRKRPPRLPRPRPRPRYKPRP,0.15
9,RRIRARPPRLPRPRPRPFAHPRP,0.128
10,RRIRERPPRLPRPRPRPYLHPRP,-0.96
11,RRIRWRPPRLPRPRPRPQLSPRP,-0.211
12,RRIRPRPPRLPRPRPRPPVHPRP,-0.0329
13,RRIRERPPRLPRPRPRPINFPRP,-0.291
14,RRIRHRPPRLPRPRPRPVEAPRP,0.0753
15,RRIRIRPPRLPRPRPRPKHTPRP,-0.329
16,RRIRQRPPRLPRPRPRPYQNPRP,-0.816
17,RRIRRRPPRLPRPRPRPDDDPRP,0.129
18,RRIRLRPPRLPRPRPRPGKIPRP,-0.125
19,RRIRPRPPRLPRPRPRPRKNPRP,0.296
20,RRIRPRPPRLPRPRPRPQFWPRP,0.249
21,RRIRMRPPRLPRPRPRPIRLPRP,0.0373
22,RRIRKRPPRLPRPRPRPGLVPRP,0.783
23,RRIRSRPPRLPRPRPRPALFPRP,0.069
24,RRIRVRPPRLPRPRPRPDPCPRP,-0.0596
25,RRIRNRPPRLPRPRPRPKFIPRP,-0.602
